Data published in publication PMC7483523, “Affinity of Skp to OmpC revealed by single-molecule detection” (Scientific Reports, 2020).
Changes are numbered by the printed parent chain. Names and notes keep the numbering of the source.

T1: OmpC G8C-L139C, dual-labelled (UniProt P06996 22-367, G8C | L139C, dual-labelled with fluorescent dyes on the cysteines (dyes not named for this mutant))
T1 construct: OmpC, outer membrane protein; plasmid pET28a-ompC as template; also called OmpC double mutant; source: E. coli BL21(DE3), purified (Ni-NTA) in 8 M urea
T1 sequence (looked up): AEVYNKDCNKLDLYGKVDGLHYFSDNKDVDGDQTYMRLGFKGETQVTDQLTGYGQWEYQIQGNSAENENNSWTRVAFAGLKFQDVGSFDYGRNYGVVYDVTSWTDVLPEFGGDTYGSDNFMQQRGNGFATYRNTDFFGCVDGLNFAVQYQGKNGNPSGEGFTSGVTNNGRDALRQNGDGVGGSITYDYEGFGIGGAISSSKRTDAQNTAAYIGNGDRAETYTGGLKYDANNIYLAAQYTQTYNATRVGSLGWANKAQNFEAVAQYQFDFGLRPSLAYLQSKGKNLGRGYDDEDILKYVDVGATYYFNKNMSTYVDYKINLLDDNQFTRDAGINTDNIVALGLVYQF

T2: OmpC G8C-I232C, dual-labelled (UniProt P06996 22-367, G8C | I232C, dual-labelled with fluorescent dyes on the cysteines (dyes not named for this mutant))
T2 construct: OmpC, outer membrane protein; plasmid pET28a-ompC as template; also called OmpC double mutant; source: E. coli BL21(DE3), purified (Ni-NTA) in 8 M urea
T2 sequence (looked up): T1 sequence (looked up) with C139L, I232C

T3: OmpC·Skp3 complex (dual-labelled OmpC G8C-D335C with wild-type Skp) (UniProt P06996 22-367; P0AEU7 21-161, G8C | D335C, fluorescent dyes AF555 and AF647 (maleimide) on the cysteines)
T3 construct: OmpC, as the chain of m4; Skp, as the chain of m1; source: formed in the sample from purified urea-denatured OmpC G8C-D335C (50 pM) and purified wild-type Skp; copies: 1 + 3
T3 sequence 1: T1 sequence (looked up) with C139L, D335C
T3 sequence 2: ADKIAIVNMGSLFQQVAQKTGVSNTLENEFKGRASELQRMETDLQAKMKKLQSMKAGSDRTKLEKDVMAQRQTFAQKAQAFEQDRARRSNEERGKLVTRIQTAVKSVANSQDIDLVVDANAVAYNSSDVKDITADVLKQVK

T4: OmpC G8C-D335C labelled with AF555 and AF647 (UniProt P06996 22-367, G8C | D335C, fluorescent dyes AF555 and AF647 (maleimide) on the cysteines)
T4 construct: OmpC, outer membrane protein; plasmid pET28a-ompC as template; Unfolded OmpC, diluted from urea; Residue numbers fit the mature protein without its signal peptide (surmised); also called dual-labelled OmpC; intramolecular labelled OmpC G8C-D335C; source: E. coli BL21(DE3), purified (Ni-NTA) in 8 M urea; diluted from 8 M urea into the sample
T4 sequence (looked up): T1 sequence (looked up) with C139L, D335C

T5: OmpC G8C-AF555 with an AviTag on the C-terminus, biotinylated (UniProt P06996 22-367, G8C, AF555 (maleimide) on the cysteine of G8C; biotin on the AviTag's lysine side chain)
T5 construct: OmpC, outer membrane protein; plasmid pET28a-ompC as template; Held on a streptavidin surface by the biotin of the AviTag; also called biotinylated OmpC; source: E. coli BL21(DE3), purified (Ni-NTA) in 8 M urea; biotinylated by BirA
T5 sequence (looked up): T1 sequence (looked up) with C139L

B1: wild-type Skp (natural protein)
chain: T3 sequence 2
notes: Skp, periplasmic chaperone of gram-negative bacteria; plasmid pET28a-skp; In equilibrium between monomer and homotrimer (Skp3); concentrations are counted in Skp monomer; The printed mass of the labelled His-tagged mutant (18.8 kD) and the residue number D128 fit the mature protein without its signal peptide (surmised); also called Skp3 (trimer); Skp monomer; source: E. coli BL21(DE3) pLysS, …
B2: Skp D128C-AF647 (natural protein)
chain: T3 sequence 2 with D128C
modifications: AF647 (maleimide) on the cysteine of D128C
notes: Skp; plasmid pET28a-skp as template; source: E. coli BL21(DE3) pLysS, purified (Ni-NTA, desalting), labelled in 4 M urea; not shown: His-tag, N-terminal, kept

Experiments:
[1] = molecular target: the molecule itself; test: fluorescence correlation spectroscopy (FCS); trimer to monomers; 0.4 nM Skp D128C-Cy3B as tracer in wild-type Skp of various concentrations, denatured by 4 M urea and diluted 100-fold in buffer C (50 mM PB, 100 mM NaCl, pH 7.0), 0.02% tween 20, 23 °C; effective stoichiometric number from the diffusion time fitted against [Skp]0
[2] = molecular target: T1, OmpC G8C-L139C, dual-labelled; test: smFRET (intramolecular, on dual-labelled OmpC); 50 pM dual-labelled OmpC diluted from 8 M urea into micromolar wild-type Skp, buffer C, 0.02% tween 20, 23 °C; peak areas of Eapp 0.1 and 0.3 fitted against [Skp]0; conditions: both partners purified
[3] = molecular target: T2, OmpC G8C-I232C, dual-labelled; test: as above; conditions: both partners purified
[4] = molecular target: T3, OmpC·Skp3 complex (dual-labelled OmpC …); test: as above; conditions: both partners purified
[5] = molecular target: T4, OmpC G8C-D335C labelled with AF555 and …; test: pscFCS (portion-selectively-chosen FCS on smFRET subpopulations); 50 pM dual-labelled OmpC diluted from 8 M urea into wild-type Skp at subnanomolar to nanomolar concentrations, buffer C, 0.02% tween 20, 23 °C; diffusion times of bound and unbound OmpC compared in the same sample; conditions: both partners purified
[6] = molecular target: T5, OmpC G8C-AF555 with an AviTag on the …; test: TIRF colocalization (single molecule); apparent; biotinylated OmpC G8C-AF555 (50 pM) immobilised on a streptavidin coverslip; Skp D128C-AF647 from 500 pM to 8 nM in buffer C, 0.02% tween 20, oxygen scavenging system, 23 °C; alternating laser excitation 532 and 640 nm; conditions: both partners purified

Binder	stoichiometry N [1]	binding result [2]	binding result [3]	Kd [4] [nM]	stoichiometry N [5]	Kd [6] [nM]	stoichiometry N [6]
B1	3	binds	binds	1200 ± 400	2.8 ± 0.4 Skp:OmpC	–	–
B2	–	–	–	–	–	0.55	3
